Results published in publication doi:10.1101/471821.
No end group written: not given here.

Target: purified HLA A*03:01 class I MHC molecules
Test: radioligand binding

Binder	IC50 [nM]
IIIGVEPGQL (not fully specified)	> 5000
DSYIIIGVEPGQLK (not fully specified)	2000
